# Test results from IntAct's records for PubMed 26836588.
# B1: E3 ubiquitin-protein ligase TRIM22 (Homo sapiens), Q8IYM9 (parent)
# chain: MDFSVKVDIEKEVTCPICLELLTEPLSLDCGHSFCQACITAKIKESVIISRGESSCPVCQTRFQPGNLRPNRHLANIVERVKEVKMSPQEGQKRDVCEHHGKKLQIFCKEDGKVICWVCELSQEHQGHQTFRINEVVKECQEKLQVALQRLIKEDQEAEKLEDDIRQERTAWKNYIQIERQKILKGFNEMRVILDNEEQRELQKLEEGEVNVLDNLAAATDQLVQQRQDASTLISDLQRRLRGSSVEMLQDVIDVMKRSESWTLKKPKSVSKKLKSVFRVPDLSGMLQVLKELTDVQYYWVDVMLNPGSATSNVAISVDQRQVKTVRTCTFKNSNPCDFSAFGVFGCQYFSSGKYYWEVDVSGKIAWILGVHSKISSLNKRKSSGFAFDPSVNYSKVYSRYRPQYGYWVIGLQNTCEYNAFEDSSSSDPKVLTLFMAVPPCRIGVFLDYEAGIVSFFNVTNHGALIYKFSGCRFSRPAYPYFNPWNCLVPMTVCPPSS
# Variants of: B1
# Settings: with nod2_human NOD2, Q9HC29
# Sequence of nod2_human NOD2, Q9HC29 (Q9HC29 whole entry): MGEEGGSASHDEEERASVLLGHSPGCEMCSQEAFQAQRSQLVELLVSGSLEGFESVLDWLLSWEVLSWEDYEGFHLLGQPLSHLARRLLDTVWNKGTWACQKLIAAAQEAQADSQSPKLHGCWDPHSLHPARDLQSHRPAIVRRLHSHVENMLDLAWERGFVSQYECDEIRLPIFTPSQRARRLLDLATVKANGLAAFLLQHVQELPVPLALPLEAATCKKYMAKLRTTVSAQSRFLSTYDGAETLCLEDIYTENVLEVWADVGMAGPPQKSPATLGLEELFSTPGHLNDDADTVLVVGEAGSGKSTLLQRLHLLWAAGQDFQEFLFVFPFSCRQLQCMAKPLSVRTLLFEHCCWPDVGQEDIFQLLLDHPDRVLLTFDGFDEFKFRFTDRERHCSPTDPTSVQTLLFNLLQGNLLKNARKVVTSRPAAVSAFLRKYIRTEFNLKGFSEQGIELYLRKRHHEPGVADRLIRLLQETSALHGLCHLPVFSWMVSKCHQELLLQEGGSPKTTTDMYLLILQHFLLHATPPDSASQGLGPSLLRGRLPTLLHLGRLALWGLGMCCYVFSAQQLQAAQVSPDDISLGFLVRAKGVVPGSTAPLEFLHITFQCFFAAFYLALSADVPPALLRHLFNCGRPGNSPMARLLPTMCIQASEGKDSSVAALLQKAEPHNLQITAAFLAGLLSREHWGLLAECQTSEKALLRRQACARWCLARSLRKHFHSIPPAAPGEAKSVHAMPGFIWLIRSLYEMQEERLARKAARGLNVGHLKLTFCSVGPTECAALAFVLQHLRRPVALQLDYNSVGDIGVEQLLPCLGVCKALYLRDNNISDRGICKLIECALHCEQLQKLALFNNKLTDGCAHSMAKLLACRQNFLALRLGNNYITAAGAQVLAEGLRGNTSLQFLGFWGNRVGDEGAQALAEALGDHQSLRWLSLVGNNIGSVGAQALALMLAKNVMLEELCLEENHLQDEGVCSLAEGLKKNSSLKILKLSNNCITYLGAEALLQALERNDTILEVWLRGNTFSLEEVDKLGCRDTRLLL
row,Variant,effect of a mutation on the interaction
1,MDFSVKVDIEKEVTCPICLELLTEPLSLDCGHSFCQACITAKIKESVIISRGESSCPVCQTRFQPGNLRPNRHLANIVERVKEVKMSPQEGQKRDVCEHHGKKLQIFCKEDGKVICWVCELSQEHQGHQTFRINEVVKECQEKLQVALQTLIKEDQEAEKLEDDIRQERTAWKNYIQIERQKILKGFNEMRVILDNEEQRELQKLEEGEVNVLDNLAAATDQLVQQRQDASTLISDLQRRLRGSSVEMLQDVIDVMKRSESWTLKKPKSVSKKLKSVFRVPDLSGMLQVLKELTDVQYYWVDVMLNPGSATSNVAISVDQRQVKTVRTCTFKNSNPCDFSAFGVFGCQYFSSGKYYWEVDVSGKIAWILGVHSKISSLNKRKSSGFAFDPSVNYSKVYSRYRPQYGYWVIGLQNTCEYNAFEDSSSSDPKVLTLFMAVPPCRIGVFLDYEAGIVSFFNVTNHGALIYKFSGCRFSRPAYPYFNPWNCLVPMTVCPPSS [R150T],with no effect
2,MDFSVKVDIEKEVTCPICLELLTEPLSLDCGHSFCQACITAKIKESVIISRGESSCPVCQTRFQPGNLRPNRHLANIVERVKEVKMSPQEGQKRDVCEHHGKKLQIFCKEDGKVICWVCELSQEHQGHQTFRINEVVKECQEKLQVALQRLIKEDQEAEKLEDDIRQERTAWKNYIQIERQKILKGFNEMRVILDNEEQRELQKLEEGEVNVLDNLAAATDQLVQQRQDASTLISDLQRRLRGSSVEMLQDVIDVMKRSESWTLKKPKSVSKKLKSVFRVPDLSGMLQVLKELTDVQYYWVDVMLNPGSATSNVAISVDQRQVKTVRTCTFKNSNPCDFSAFGVFGCQYFSSGKYYWEVDVSGKIAWILGVHSKISSLNKRKSSGFAFDPSVNYSKVYSRYRPQYGYWVIGLQNTCEYNAFEDSSSSDPKVLTLFMAVPPCCIGVFLDYEAGIVSFFNVTNHGALIYKFSGCRFSRPAYPYFNPWNCLVPMTVCPPSS [R442C],disrupting interaction strength
3,MDFSVKVDIEKEVTCPICLELLTEPLSLDCGHSFCQACITAKIKESVIISRGESSCPVCQTRFQPGNLRPNRHLANIVERVKEVKMSPQEGQKRDVCEHHGKKLQIFCKEDGKVICWVCELSQEHQGHQTFRINEVVKECQEKLQVALQRLIKEDQEAEKLEDDIRQERTAWKNYIQIERQKILKGFNEMRVILDNEEQRELQKLEEGEVNVLDNLAAATDQLVQQRQDASTLISDLQRRLRGSSVEMLQDVIDVMKRSESWTLKKPKSVSKKLKSVFRVPDLSGMLQVLKELTDVQYYWVDVMLNPGSATSNVAISVDQKQVKTVRTCTFKNSNPCDFSAFGVFGCQYFSSGKYYWEVDVSGKIAWILGVHSKISSLNKRKSSGFAFDPSVNYSKVYSRYRPQYGYWVIGLQNTCEYNAFEDSSSSDPKVLTLFMAVPPCRIGVFLDYEAGIVSFFNVTNHGALIYKFSGCRFSRPAYPYFNPWNCLVPMTVCPPSS [R321K],decreasing interaction strength
4,MDFSVKVDIEKEVTCPICLELLTEPLSLDCGHSFCQACITAKIKESVIISRGESSCPVCQTRFQPGNLRPNRHLANIVERVKEVKMSPQEGQKRDVCEHHGKKLQIFCKEDGKVICWVCELSQEHQGHQTFRINEVVKECQEKLQVALQRLIKEDQEAEKLEDDIRQERTAWKNYIQIERQKILKGFNEMRVILDNEEQRELQKLEEGEVNVLDNLAAATDQLVQQRQDASTLISDLQRRLRGLSVEMLQDVIDVMKRSESWTLKKPKSVSKKLKSVFRVPDLSGMLQVLKELTDVQYYWVDVMLNPGSATSNVAISVDQRQVKTVRTCTFKNSNPCDFSAFGVFGCQYFSSGKYYWEVDVSGKIAWILGVHSKISSLNKRKSSGFAFDPSVNYSKVYSRYRPQYGYWVIGLQNTCEYNAFEDSSSSDPKVLTLFMAVPPCRIGVFLDYEAGIVSFFNVTNHGALIYKFSGCRFSRPAYPYFNPWNCLVPMTVCPPSS [S244L],decreasing interaction strength
